Drawing on patent US20240092842A1, this text covers PME enzyme activity in the reaction solution (pectin / bromothymol blue, OD 620 nm) for 1 substance.

The target of the assay is PME crude extract of Arabidopsis thaliana stem (Arabidopsis thaliana). Kind of assay: cell-based or functional assay.

“recombinant GhPMEI39 protein (pColdTF-GhPMEI39 fusion protein with 6xHis-Tag, expressed in Escherichia coli BL21 (DE3))” returned a PME enzyme activity in the reaction solution (pectin / bromothymol blue, OD 620 nm) at PME:GhPMEI39 1:2 of 24%.
